Measured values: paper PMC5580885

Target: Tim50^IMS (purified, recombinant) (S. cerevisiae) (UniProt Q02776)
Test: cross-linking

Chain of UniProt Q02776 (Q02776 133-476): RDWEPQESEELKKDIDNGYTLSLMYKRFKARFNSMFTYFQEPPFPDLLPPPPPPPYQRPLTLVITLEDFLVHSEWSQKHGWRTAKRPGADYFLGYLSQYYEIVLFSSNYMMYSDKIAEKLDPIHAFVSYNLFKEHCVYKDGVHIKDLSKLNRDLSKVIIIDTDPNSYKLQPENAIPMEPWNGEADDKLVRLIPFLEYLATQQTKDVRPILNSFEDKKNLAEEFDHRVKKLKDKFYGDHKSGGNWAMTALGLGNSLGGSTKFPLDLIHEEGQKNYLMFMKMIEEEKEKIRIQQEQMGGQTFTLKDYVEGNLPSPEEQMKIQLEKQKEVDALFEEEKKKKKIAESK

fold cross-linking with TOCL over without TOCL: 6 fold
Substance: [35S]Tim23(F114C) (from UniProt P32897 1-222) (natural protein)
